In publication PMC6054568:

Key:
ErbB2 CCH-10 = ErbB2 CCH-10 (UniProt P04626); experiment: bipartite tetracysteine display
ErbB2 V635G CCH-10 = ErbB2 V635G CCH-10 (UniProt P04626); experiment: bipartite tetracysteine display

| fold increase in ReAsH fluorescence (no growth factor) (ErbB2 CCH-10) [fold] | fold increase in ReAsH fluorescence (no growth factor) (ErbB2 V635G CCH-10) [fold] | Substance |
| --- | --- | --- |
| 1.8 |  | ErbB2 CCH-10 (from UniProt P04626 23-1255) (receptor) |
|  | 1.7 | ErbB2 V635G CCH-10 (from UniProt P04626 23-1255) (receptor) |
